According to patent US20150266977A1 (AbbVie / Abbott, published 2015):

How the values were obtained:
[1] = biological target: T1, recombinant human sclerostin (human, UniProt Q9BQB4 24-213); test: capture ELISA, biotin-sclerostin
T1 construct: biotinylated in the ELISAs; also called hu sclerostin; hu scl
T1 sequence: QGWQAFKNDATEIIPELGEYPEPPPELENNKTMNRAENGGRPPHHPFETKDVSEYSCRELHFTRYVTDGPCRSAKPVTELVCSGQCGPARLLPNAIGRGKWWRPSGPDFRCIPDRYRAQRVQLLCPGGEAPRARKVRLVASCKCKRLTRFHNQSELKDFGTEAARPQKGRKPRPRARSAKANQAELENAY

Rhesus/cynoTNFa = Rhesus/cynoTNFa (Rhesus/cyno); test: cell-based or functional assay
[2] = biological target: T1, recombinant human sclerostin; test: SPR
Procedure: (§1) The binding of antibodies or anti-sclerostin-TNF DVD to purified recombinant human, cynomolgus monkey (cyno), rat and mouse sclerostin and TNFα was determined by surface plasmon resonance-based measurements with a Biacore T100 or T200 instruments (GE Healthcare Life Sciences, Piscataway, N.J., USA) using running HBS-EP+ (10 mM HEPES [pH 7.4], 150 mM NaCl, 3 mM EDTA, and 0.005% surfactant P20) containing additional 150 mM NaCl, and/or 10 mg/ml carboxymethyl dextran, 0.1 mg/ml BSA at 25° C. All chemicals were obtained from GE Healthcare Life Sciences, Piscataway, N.J., USA or otherwise from a different source as described in the text. Approximately 10,000 RU (or 3000 RU when CM3 chip was used) of goat anti-mouse or anti-human IgG (Fcγ) fragment specific polyclonal antibody (Pierce Biotechnology Inc, Rockford, Ill.) diluted in 10 mM sodium acetate (pH 4.5) was directly immobilized across a CM5 (or CM3) research grade biosensor chip using a standard amine coupling kit according to manufacturer's instructions and procedures at 15 μg/ml. Unreacted moieties on the biosensor surface were blocked with ethanolamine. Modified carboxymethyl dextran surface in flowcells 2, 3 and 4 were used as a reaction surface. Modified carboxymethyl dextran in flow cell 1 was used as the reference surface. Biaevaluation T100 software version 2.0.2, GE Healthcare Life Sciences was used to simultaneously fit association and dissociation phases of all injections (using 1:1 fit analysis with local Rmax). Purified antibodies were diluted in running buffer for capture across goat anti-mouse or anti-human IgG specific reaction surfaces. Antibodies to be captured as a ligand (1 μg/ml) were injected over reaction matrices at a flow rate of 10 μl/minute. The association and dissociation rate constants, kon (unit M-1 s-1) and koff (unit s-1) were determined under a continuous flow rate of 50 μl/minute. […] At the end of each cycle the surfaces were regenerated with 10 s injection of 50 mM NaOH or/and by 10 s injection of 10 mM Glycine pH1.5 at a flow rate of 100 μl/min.

recombinant human TNF-α [3] = biological target: T2, recombinant human TNF-α (human, UniProt P01375 77-233); test: SPR
T2 construct: also called huTNF; Human TNFa
Procedure: as §1

[4] = biological target: T3, recombinant cynomolgus monkey sclerostin (cynomolgus monkey); test: SPR
T3 construct: also called cyno sclerostin; Cyno sclerostin
Procedure: as §1

recombinant human TNF-α [5] = biological target: T2, recombinant human TNF-α; test: cell-based or functional assay
[6] = biological target: T1, recombinant human sclerostin; test: direct bind ELISA

T2 sequence (P01375 77-233 limits assumed): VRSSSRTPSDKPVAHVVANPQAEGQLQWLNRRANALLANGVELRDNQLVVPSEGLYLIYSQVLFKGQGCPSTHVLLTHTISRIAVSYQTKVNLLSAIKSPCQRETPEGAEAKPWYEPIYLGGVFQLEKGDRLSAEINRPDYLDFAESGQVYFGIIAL
Chain of Rhesus/cynoTNFa (Rhesus/cyno) (P48094 whole entry): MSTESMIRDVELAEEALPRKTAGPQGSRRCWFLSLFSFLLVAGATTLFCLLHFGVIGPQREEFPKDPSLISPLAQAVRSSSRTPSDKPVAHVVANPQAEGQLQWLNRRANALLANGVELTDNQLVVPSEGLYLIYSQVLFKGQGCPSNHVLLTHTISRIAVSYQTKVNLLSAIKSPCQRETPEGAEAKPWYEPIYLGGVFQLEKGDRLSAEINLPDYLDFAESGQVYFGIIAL

B1: MSL10 (antibody, V domains shown)
VH: EVQLVESGGGLVQPGGSLRLSCTASGFTFDDYALHWVRQAPGKGLEWVSGISWHGDFIDYADSVKGRFTISRDNSKNTLYLQMNGLRVEDMAIYYCAGNNRGYGGLDVWGQGTTVTVSS
VL: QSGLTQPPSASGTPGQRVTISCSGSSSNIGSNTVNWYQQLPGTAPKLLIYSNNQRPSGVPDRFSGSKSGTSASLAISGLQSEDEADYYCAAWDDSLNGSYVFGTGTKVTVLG
notes: fully human mAb
Q: B1 was tested. Which EC50 [1] did it give?
A: 0.427 nM

B2: MSL17 (antibody, V domains shown)
VH: EVQLLESGGGLVKPGRSLRLSCVAYGFSLTGYSMNWVRQAPGKGLEWVSSISPNDTYRHYADSVKGRFTISRDNAKNSLYLQMNSLRAEDTAVYYCARDTNYRDSGGYFYDVFDIWGQGTMVTVSS
VL: SYELTQPPSVSVAPGETARVTCEGNNIGNKGVHWYQQKPGQAPVLVVYDDSDRPSGIPERFSGSNSGNTATLTISRVEAGDDADYYCQVWDSSSDVFGSGTKVTVLG
notes: fully human mAb
Q: Which EC50 [1] does the source give for B2 here?
A: 0.778 nM

B3: AE10-6 AM7-GS-MAK195-21 (bispecific antibody, human IgG1, kappa, L234A L235A)
heavy: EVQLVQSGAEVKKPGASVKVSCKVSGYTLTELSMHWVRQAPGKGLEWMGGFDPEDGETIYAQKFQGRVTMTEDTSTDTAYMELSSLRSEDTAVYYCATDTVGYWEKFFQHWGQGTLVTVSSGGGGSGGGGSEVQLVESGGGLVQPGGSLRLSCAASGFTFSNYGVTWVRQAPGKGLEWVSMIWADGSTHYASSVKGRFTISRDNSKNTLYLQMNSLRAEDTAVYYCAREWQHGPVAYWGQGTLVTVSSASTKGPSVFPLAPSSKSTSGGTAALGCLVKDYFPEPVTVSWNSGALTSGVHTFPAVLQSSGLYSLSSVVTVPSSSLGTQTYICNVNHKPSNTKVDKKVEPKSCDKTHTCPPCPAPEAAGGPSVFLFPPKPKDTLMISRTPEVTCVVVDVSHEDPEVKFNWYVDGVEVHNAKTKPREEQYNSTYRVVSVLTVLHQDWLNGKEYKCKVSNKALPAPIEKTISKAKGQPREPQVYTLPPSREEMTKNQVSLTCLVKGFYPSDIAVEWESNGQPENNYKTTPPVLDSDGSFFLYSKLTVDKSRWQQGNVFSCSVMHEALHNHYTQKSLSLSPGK
light: QAVVTQEPSLTVSPGGTVTLTCGSSTGTVTIDHYPYWFQQKPGQAPRTLISDTDDKHSWTPARFSGSLLGGKAALTLSGAQPEDEAEYYCLLDYGGRFVFGGGTKLTVLGGGSGGGGSGDIQMTQSPSSLSASVGDRVTITCRASQLVSSAVAWYQQKPGKAPKLLIYWASARHTGVPSRFSGSGSGTDFTLTISSLQPEDFATYYCQQHYKTPFTFGQGTKLEIKRTVAAPSVFIFPPSDEQLKSGTASVVCLLNNFYPREAKVQWKVDNALQSGNSQESVTEQDSKDSTYSLSSTLTLSKADYEKHKVYACEVTHQGLSSPVTKSFNRGEC
notes: DVD-Ig: outer AE10-6 AM7, inner MAK195-21
Q: For B3, which “L929 TNF neutralization IC50” value (Rhesus/cynoTNFa) is on record?
A: > 2000 pM

Q: What about the Kd [2] of the same binder?
A: < 0.15 pM

Q: What about the koff [2] of the same binder?
A: < 1e-06 s⁻¹

Q: What about the kon [2] of the same binder?
A: 6.8e+06 M⁻¹ s⁻¹

B4: MAK199-1-GS-AE10-6 AM7 QL (bispecific antibody, human IgG1, lambda, L234A L235A)
heavy: EVQLVQSGAEVKKPGASVKVSCKASGYTFANYGIIWVRQAPGQGLEWMGWINTYTGKPTYAQKFQGRVTMTTDTSTSTAYMELSSLRSEDTAVYYCARKLFTTMDVTDNAMDYWGQGTTVTVSSGGGGSGGGGSEVQLVQSGAEVKKPGASVKVSCKVSGYTLTELSMHWVRQAPGKGLEWMGGFDPEDGETIYAQKFQGRVTMTEDTSTDTAYMELSSLRSEDTAVYYCATDTVGYWEKFFQHWGQGTLVTVSSASTKGPSVFPLAPSSKSTSGGTAALGCLVKDYFPEPVTVSWNSGALTSGVHTFPAVLQSSGLYSLSSVVTVPSSSLGTQTYICNVNHKPSNTKVDKKVEPKSCDKTHTCPPCPAPEAAGGPSVFLFPPKPKDQLMISRTPEVTCVVVDVSHEDPEVKFNWYVDGVEVHNAKTKPREEQYNSTYRVVSVLTVLHQDWLNGKEYKCKVSNKALPAPIEKTISKAKGQPREPQVYTLPPSREEMTKNQVSLTCLVKGFYPSDIAVEWESNGQPENNYKTTPPVLDSDGSFFLYSKLTVDKSRWQQGNVFSCSVLHEALHNHYTQKSLSLSPGK
light: DIQMTQSPSSLSASVGDRVTITCRASQDISQYLNWYQQKPGKAPKLLIYYTSRLQSGVPSRFSGSGSGTDFTLTISSLQPEDFATYFCQQGNTWPPTFGQGTKLEIKRGGSGGGGSGQAVVTQEPSLTVSPGGTVTLTCGSSTGTVTIDHYPYWFQQKPGQAPRTLISDTDDKHSWTPARFSGSLLGGKAALTLSGAQPEDEAEYYCLLDYGGRFVFGGGTKLTVLGQPKAAPSVTLFPPSSEELQANKATLVCLISDFYPGAVTVAWKADSSPVKAGVETTTPSKQSNNKYAASSYLSLTPEQWKSHRSYSCQVTHEGSTVEKTVAPTECS
notes: DVD-Ig with CH QL
Q: What does the source list for B4?
A: Kd (recombinant human TNF-α [3]): 7 pM; koff (recombinant human TNF-α [3]): 3e-05 s⁻¹; kon (recombinant human TNF-α [3]): 4.2e+06 M⁻¹ s⁻¹; Kd [2]: < 0.16 pM; koff [2]: < 1e-06 s⁻¹; kon [2]: 6.1e+06 M⁻¹ s⁻¹; Kd [4]: < 0.1 pM; koff [4]: < 1e-06 s⁻¹; kon [4]: 9.9e+06 M⁻¹ s⁻¹; L929 TNF neutralization IC50 with 50 nM SOST (recombinant human TNF-α [5]): 32 pM; L929 TNF neutralization IC50 without 50 nM SOST (recombinant human TNF-α [5]): 33 pM

B5: MSK13 (antibody, V domains shown)
VH: EMQLVQSGAEVKKPGASVKVSCKASGYTFSGYYMNWVRQAPGQGLEWMGWINPYSGAATYAQDFQGRITVTRDTSISTGYMELTRLTSTDTAVYYCARGGTITGASWYFDVWGRGTLVTVSS
VL: DIVMTQTPLSLPVTLGQPASISCRSSQSLVHSDGNTYLNWFQQRPGQSPRRLIYKVSNRDSGVPDRFSGSGSGTDFTLKISRVEAEDVGVYYCMQGTHWPQLTFGGGTKVEIKR
notes: fully human mAb
Q: Does B5 bind [6]?
A: binds
